How the values were obtained:
[1] = test system: U-STAT1 (unphosphorylated STAT1) (human); assay: EMSA
[2] = test system: P-STAT1 (phosphorylated STAT1) (human); assay: TIRF-PBM; settings: 5' amino on one strand, coupled to hydrogel
[3] = target: T1, c-Myc;Max isoform (human;human) (UniProt P01106+P61244); assay: TIRF-PBM; settings: 5' amino on one strand, coupled to hydrogel
[4] = target: T1, c-Myc;Max isoform (human;human); assay: TIRF-PBM; settings: 5' amino on one strand, coupled to hydrogel; remark: listed apart in the source

T1 sequence (P01106 16-454, chain 1 of 2): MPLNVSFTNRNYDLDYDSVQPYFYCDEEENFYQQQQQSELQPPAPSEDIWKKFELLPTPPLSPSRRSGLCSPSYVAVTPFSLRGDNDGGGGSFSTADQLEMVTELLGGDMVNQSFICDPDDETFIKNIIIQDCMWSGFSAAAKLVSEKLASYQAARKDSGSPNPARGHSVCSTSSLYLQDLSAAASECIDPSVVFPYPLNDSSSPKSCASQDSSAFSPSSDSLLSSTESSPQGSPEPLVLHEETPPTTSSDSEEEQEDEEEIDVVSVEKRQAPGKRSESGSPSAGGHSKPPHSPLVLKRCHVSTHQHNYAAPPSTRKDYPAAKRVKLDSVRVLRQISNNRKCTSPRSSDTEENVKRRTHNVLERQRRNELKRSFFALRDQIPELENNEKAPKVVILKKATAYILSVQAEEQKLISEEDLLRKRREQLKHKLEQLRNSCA
T1 sequence (P61244 2-160, chain 2 of 2): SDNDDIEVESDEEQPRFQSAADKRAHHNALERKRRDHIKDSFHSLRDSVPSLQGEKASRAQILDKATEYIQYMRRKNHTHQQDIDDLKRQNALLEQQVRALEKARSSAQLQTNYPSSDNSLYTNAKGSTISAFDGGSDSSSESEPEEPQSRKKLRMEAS

With GAS cognate DNA (EMSA) the binding signal (fold lower affinity than P-STAT1) [1] was greater than 200.

With sequence 70 (optimal GAS, spacer CCG) the Kd [2] was 3.4 nM.

“Myc/Max cognate E-box DNA (probe number not given)” was tested, and the Kd [3] was 0.9 nM and the Kd [4] was 3.6 nM.
